Experimental data taken from paper PMC4471680.

Target: myeloperoxidase (human (endogenous in neutrophils))
Experiment: SEC; unactivated azurophilic granules permeabilized with 0.1% NP-40, Superdex 200 GL, 20 mM HEPES pH 7.4, 100 mM NaCl, 0.5 U/ml heparin; fractions probed for NE and MPO; proteins of the complex detected by mass spectrometry

myeloperoxidase (human (endogenous in neutrophils)), sequence (P05164 165-745): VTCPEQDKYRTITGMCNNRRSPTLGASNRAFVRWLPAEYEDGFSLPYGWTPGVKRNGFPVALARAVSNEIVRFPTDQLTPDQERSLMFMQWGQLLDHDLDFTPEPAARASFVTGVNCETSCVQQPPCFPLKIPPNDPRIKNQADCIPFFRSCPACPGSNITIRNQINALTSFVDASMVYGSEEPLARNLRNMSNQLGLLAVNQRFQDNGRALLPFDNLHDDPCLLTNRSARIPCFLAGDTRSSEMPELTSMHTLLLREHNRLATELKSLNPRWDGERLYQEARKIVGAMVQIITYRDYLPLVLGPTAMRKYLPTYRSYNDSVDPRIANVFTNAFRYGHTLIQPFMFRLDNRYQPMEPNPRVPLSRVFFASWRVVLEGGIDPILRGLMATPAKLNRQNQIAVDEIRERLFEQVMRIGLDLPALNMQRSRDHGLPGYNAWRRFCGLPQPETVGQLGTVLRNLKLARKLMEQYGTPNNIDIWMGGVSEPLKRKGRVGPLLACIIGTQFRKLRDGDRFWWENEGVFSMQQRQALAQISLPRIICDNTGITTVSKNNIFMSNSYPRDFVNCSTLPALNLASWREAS

With “neutrophil elastase (from UniProt P08246 30-267) (enzyme)” the stoichiometry N was 2 NE per MPO.
